From the Immune Epitope Database (IEDB)
Values belong to the sequence of their own block, whether it stands above or below them.

How the values were obtained:
HLA-B*44:02 = assay: IEDB peptide-MHC binding, purified MHC/competitive/radioactivity; filed as Kd, often an IC50 or EC50 that approximates it; ≥ and ≤ were set here for values at or beyond the usual limits of such assays
HLA-B*44:03 = assay: as above
HLA-B*40:01 = assay: IEDB peptide-MHC binding, purified MHC/direct/fluorescence; filed as Kd, often an IC50 or EC50 that approximates it; ≥ and ≤ were set here for values at or beyond the usual limits of such assays
HLA-A*24:02 [1] = assay: IEDB peptide-MHC binding, purified MHC/competitive/fluorescence; ≥ and ≤ were set here for values at or beyond the usual limits of such assays
HLA-A*01:01 [2] = assay: IEDB peptide-MHC binding, purified MHC/competitive/radioactivity; filed as Kd, often an IC50 or EC50 that approximates it; ≥ and ≤ were set here for values at or beyond the usual limits of such assays; conditions: source organism: SARS coronavirus Tor2
HLA-A*11:01 [3] = assay: as above; conditions: source organism: SARS coronavirus Tor2
HLA-A*23:01 = assay: as above; conditions: source organism: SARS coronavirus Tor2
HLA-A*24:02 [4] = assay: as above; conditions: source organism: SARS coronavirus Tor2
HLA-A*26:01 = assay: as above
HLA-A*29:02 = assay: as above; conditions: source organism: SARS coronavirus Tor2
HLA-A*30:02 = assay: as above; conditions: source organism: SARS coronavirus Tor2
HLA-A*31:01 = assay: as above; conditions: source organism: SARS coronavirus Tor2
HLA-A*33:01 = assay: as above; conditions: source organism: SARS coronavirus Tor2
HLA-A*68:01 = assay: as above; conditions: source organism: SARS coronavirus Tor2
HLA-A*32:01 = assay: as above
HLA-B*53:01 = assay: as above
HLA-A*02:01 = assay: IEDB peptide-MHC binding, purified MHC/competitive/fluorescence; ≥ and ≤ were set here for values at or beyond the usual limits of such assays
HLA-A*01:01 [5] = assay: IEDB peptide-MHC binding, purified MHC/direct/fluorescence; filed as Kd, often an IC50 or EC50 that approximates it; ≥ and ≤ were set here for values at or beyond the usual limits of such assays; conditions: source organism: Homo sapiens
HLA-A*11:01 [6] = assay: as above
HLA-A*69:01 = assay: as above; conditions: source organism: Homo sapiens
HLA-A*02:02 = assay: IEDB peptide-MHC binding, purified MHC/competitive/radioactivity; filed as Kd, often an IC50 or EC50 that approximates it; ≥ and ≤ were set here for values at or beyond the usual limits of such assays; conditions: source organism: Vaccinia virus WR
HLA-A*02:03 = assay: as above; conditions: source organism: Vaccinia virus WR
HLA-A*02:06 = assay: as above; conditions: source organism: Vaccinia virus WR
HLA-A*03:01 = assay: IEDB peptide-MHC binding, purified MHC/direct/fluorescence; filed as Kd, often an IC50 or EC50 that approximates it; ≥ and ≤ were set here for values at or beyond the usual limits of such assays; conditions: source organism: Campylobacter jejuni RM1221
[7] = source organism: Dengue virus 1 Brazil/97-11/1997
[8] = source organism: Dengue virus 2 Jamaica/1409/1983
[9] = source organism: Dengue virus 3 Martinique/1243/1999
[10] = source organism: Sudan ebolavirus
[11] = source organism: SARS coronavirus Tor2
[12] = source organism: Dengue virus 4 Philippines/H241/1956
[13] = source organism: Zaire ebolavirus
[14] = source organism: Vaccinia virus WR

Sequence: ADSGCVINW
Kd (HLA-B*44:02; [7]): 70.7 nM

Sequence: AEAIFKLTY
Kd (HLA-B*44:02; [8]): 3.67 nM
Kd (HLA-B*44:03; [8]): 34.7 nM

Sequence: AEIPLQWIA
Kd (HLA-B*44:02; [9]): 68.6 nM
Kd (HLA-B*44:03; [9]): 634 nM

Sequence: AELEDGAYRI
Kd (HLA-B*44:02; [8]): 16 nM
Kd (HLA-B*44:03; [8]): 17.9 nM

Kd (HLA-B*44:03; source organism: Homo sapiens): 66 nM
Sequence: AEPIDIQTW

Sequence: AEQIVLGVI
Kd (HLA-B*40:01; source organism: Mycobacterium tuberculosis variant bovis): 61.1 nM

Sequence: AERVLDWLEK
Kd (HLA-B*44:02; [7]): 3270 nM

Sequence: AFHKDGAFF
IC50 (HLA-A*24:02 [1]; [10]): 9670 nM

Sequence: AMYADDTAGW
Kd (HLA-B*44:02; [8]): 124 nM

Sequence: ATSRTLSYY
Kd (HLA-A*01:01 [2]): 4.81 nM
Kd (HLA-A*11:01 [3]): 28.5 nM
Kd (HLA-A*23:01): ≥ 77800 nM
Kd (HLA-A*24:02 [4]): ≥ 35700 nM
Kd (HLA-A*26:01; [11]): 1940 nM
Kd (HLA-A*29:02): 12 nM
Kd (HLA-A*30:02): 1.03 nM
Kd (HLA-A*31:01): 3880 nM
Kd (HLA-A*33:01): ≥ 77700 nM
Kd (HLA-A*68:01): 1200 nM

Sequence: AVLTGGVTL
Kd (HLA-A*32:01; [7]): 6690 nM

Sequence: CVIASSGMLW
Kd (HLA-A*26:01; [9]): 1220 nM
Kd (HLA-B*53:01; [9]): 22.2 nM

Sequence: EEHKETWHY
Kd (HLA-B*44:02; [12]): 203 nM
Kd (HLA-B*44:03; [12]): 16.9 nM

Sequence: EEPVPMSTY
Kd (HLA-B*44:02; [9]): 360 nM

Sequence: EEREIPERSW
Kd (HLA-B*44:02; [8]): 66.5 nM
Kd (HLA-B*44:03; [8]): 242 nM

Sequence: FHKDGAFFL
IC50 (HLA-A*02:01; [10]): ≥ 92900 nM
IC50 (HLA-A*24:02 [1]; [10]): 6730 nM

Sequence: GAFFLYDRL
IC50 (HLA-A*02:01; [10]): ≥ 158000 nM
IC50 (HLA-A*24:02 [1]; [10]): ≥ 122000 nM

Sequence: GPLTTLWEGS
Kd (HLA-A*32:01; [7]): 18200 nM

Sequence: GSAKLRWFVE
Kd (HLA-A*32:01; [8]): ≥ 22200 nM

Kd (HLA-A*01:01 [5]): 42.6 nM
Kd (HLA-A*11:01 [6]; source organism: Homo sapiens): 6940 nM
Kd (HLA-A*69:01): 3960 nM
Sequence: GSEDRDLLY

Sequence: GTNGNHMQI
IC50 (HLA-A*02:01; [10]): 62900 nM
IC50 (HLA-A*24:02 [1]; [10]): 3020 nM

Sequence: HAYQGDYKL
IC50 (HLA-A*02:01; [13]): ≥ 78000 nM
IC50 (HLA-A*24:02 [1]; [13]): 20900 nM

Sequence: HYWTTQDEG
IC50 (HLA-A*24:02 [1]; [13]): 42800 nM

Sequence: IEKTKTDFGF
Kd (HLA-B*44:02; [12]): 1730 nM

Sequence: ISLFYTFAI
Kd (HLA-A*32:01; [14]): 0.567 nM

Sequence: ITLVVISVI
Kd (HLA-A*02:02): 15100 nM
Kd (HLA-A*02:03): 1810 nM
Kd (HLA-A*02:06): 1030 nM
Kd (HLA-A*32:01; [14]): ≥ 35300 nM

Sequence: KDFFSSHPL
IC50 (HLA-A*02:01; [13]): ≥ 249000 nM
IC50 (HLA-A*24:02 [1]; [13]): 55100 nM

Sequence: KFMSNGEHV
IC50 (HLA-A*02:01; [14]): 27700 nM
IC50 (HLA-A*24:02 [1]; [14]): 4440 nM

Sequence: KLFYVYYNL
Kd (HLA-A*32:01; [14]): 0.344 nM

Sequence: KRSNTTGKL
IC50 (HLA-A*24:02 [1]; [13]): 66100 nM

Sequence: KTTAKEVAL
Kd (HLA-A*32:01; [12]): ≥ 21100 nM

Sequence: KVSDSNLHK
Kd (HLA-A*03:01): 190 nM
Kd (HLA-A*11:01 [6]; source organism: Campylobacter jejuni RM1221): 4.6 nM

Sequence: LALREFKEF
Kd (HLA-B*53:01; [7]): 1730 nM

Sequence: LPMTVAAMG
Kd (HLA-B*53:01; source organism: Dengue virus 3 Sri Lanka/1266/2000): 3540 nM

Sequence: LTGTFVTAF
Kd (HLA-A*32:01; [14]): 8.81 nM

Sequence: LYDANYFVCW
Kd (HLA-A*01:01 [2]): 1130 nM
Kd (HLA-A*23:01): 24.5 nM
Kd (HLA-A*24:02 [4]): 55.4 nM
Kd (HLA-A*26:01; [11]): 9640 nM
Kd (HLA-A*29:02): 1440 nM
Kd (HLA-A*30:02): 13400 nM

Sequence: MEHKYSWKSW
Kd (HLA-A*32:01; [7]): 2040 nM
Kd (HLA-B*44:02; [7]): 11.2 nM
Kd (HLA-B*44:03; [7]): 137 nM

Sequence: MFSPIVPFW
Kd (HLA-A*01:01 [2]): ≥ 78100 nM
Kd (HLA-A*23:01): 29.2 nM
Kd (HLA-A*24:02 [4]): 111 nM
Kd (HLA-A*26:01; [11]): ≥ 77900 nM
Kd (HLA-A*29:02): 95.1 nM
Kd (HLA-A*30:02): ≥ 30300 nM

Sequence: MGEDGCWYGM
Kd (HLA-A*32:01; [9]): ≥ 36400 nM

Sequence: NEGIMAIGI
Kd (HLA-B*44:02; [7]): 18.8 nM
Kd (HLA-B*44:03; [7]): 109 nM

Sequence: NEIRALMAL
Kd (HLA-B*40:01; source organism: Mycobacterium tuberculosis): 18.2 nM

Sequence: NELNYILWE
Kd (HLA-B*44:03; [9]): 270 nM

Sequence: NESDPEGALW
Kd (HLA-B*44:02; [7]): 26.6 nM
Kd (HLA-B*44:03; [7]): 134 nM

Sequence: NVAYGAVSF
Kd (HLA-A*32:01; [14]): 136 nM

Sequence: PFDAVLYYH
IC50 (HLA-A*24:02 [1]; [13]): 4690 nM

Sequence: PYRVVVLSF
Kd (HLA-A*01:01 [2]): 1480 nM
Kd (HLA-A*23:01): 20.8 nM
Kd (HLA-A*24:02 [4]): 100 nM
Kd (HLA-A*26:01; [11]): 1040 nM
Kd (HLA-A*29:02): 11500 nM
Kd (HLA-A*30:02): ≥ 93800 nM
